Assay results from US20160152957A1, “Methods of Producing 6-Carbon Monomers From 8-Carbon Compounds” (INVISTA North America S.á.r.l., priority 2014, published 2016).

Assays:
Format in all cases: biochemical
[1] = ω-transaminase enzyme activity assay, reverse direction (6-aminohexanoate to adipate semialdehyde); conditions: cell free extract, 10 mM 6-aminohexanoate, 10 mM pyruvate, pH 7.5, 25° C., 24 h, RP-HPLC, against the empty vector control
Experimental: (§1) A nucleotide sequence encoding a His-tag was added to the nucleic acid sequences from Chromobacterium violaceum, Pseudomonas aeruginosa, Pseudomonas syringae, Rhodobacter sphaeroides, and Vibrio fluvialis encoding the ω-transaminases of SEQ ID NOs: 7, 8, 9, 10 and 12, respectively (see FIG. 6) such that N-terminal HIS tagged ω-transaminases could be produced. Each of the resulting modified genes was cloned into a pET21a expression vector under control of the T7 promoter and each expression vector was transformed into a BL21[DE3] E. coli host. The resulting recombinant E. coli strains were cultivated at 37° C. in a 250 mL shake flask culture containing 50 mL LB media and antibiotic selection pressure, with shaking at 230 rpm. Each culture was induced overnight at 16° C. using 1 mM IPTG.
(§2) The pellet from each induced shake flask culture was harvested via centrifugation. Each pellet was resuspended and lysed via sonication. The cell debris was separated from the supernatant via centrifugation and the cell free extract was used immediately in enzyme activity assays.
Enzyme activity assays in the reverse direction (i.e., 6-aminohexanoate to adipate semialdehyde) were performed in a buffer composed of a final concentration of 50 mM HEPES buffer (pH=7.5), 10 mM 6-aminohexanoate, 10 mM pyruvate and 100 μM pyridoxyl 5′ phosphate. Each enzyme activity assay reaction was initiated by adding cell free extract of the ω-transaminase gene product or the empty vector control to the assay buffer containing the 6-aminohexanoate and incubated at 25° C. for 24 h, with shaking at 250 rpm. The formation of L-alanine from pyruvate was quantified via RP-HPLC.

[2] = ω-transaminase enzyme activity assay, forward direction (adipate semialdehyde to 6-aminohexanoate); conditions: cell free extract, 10 mM adipate semialdehyde, 10 mM L-alanine, pH 7.5, 25° C., 4 h, RP-HPLC, against the empty vector control
Experimental: as §1, §2
Enzyme activity in the forward direction (i.e., adipate semialdehyde to 6-aminohexanoate) was confirmed for the transaminases of SEQ ID NO 7, SEQ ID NO 8, SEQ ID NO 9, SEQ ID NO 10 and SEQ ID NO 12. Enzyme activity assays were performed in a buffer composed of a final concentration of 50 mM HEPES buffer (pH=7.5), 10 mM adipate semialdehyde, 10 mM L-alanine and 100 μM pyridoxyl 5′ phosphate. Each enzyme activity assay reaction was initiated by adding a cell free extract of the ω-transaminase gene product or the empty vector control to the assay buffer containing the adipate semialdehyde and incubated at 25° C. for 4 h, with shaking at 250 rpm. The formation of pyruvate was quantified via RP-HPLC.

[3] = carboxylate reductase enzyme activity assay (adipate semialdehyde to hexanedial); conditions: purified enzyme enhanced by the gene product of sfp, 2 mM adipate semialdehyde, pH 7.5, room temperature, 20 min, against the empty vector control
Experimental: The N-terminal His-tagged carboxylate reductase of SEQ ID NO 6 (see Example 2 and FIG. 6) was assayed using adipate semialdehyde as substrate. The enzyme activity assay was performed in triplicate in a buffer composed of a final concentration of 50 mM HEPES buffer (pH=7.5), 2 mM adipate semialdehyde, 10 mM MgCl2, 1 mM ATP and 1 mM NADPH. The enzyme activity assay reaction was initiated by adding purified carboxylate reductase and phosphopantetheine transferase or the empty vector control to the assay buffer containing the adipate semialdehyde and then incubated at room temperature for 20 min. The consumption of NADPH was monitored by absorbance at 340 nm.

Molecule | ω-transaminase activity for converting 6-aminohexanoate to adipate semialdehyde (formation of L-alanine from pyruvate) [1] | ω-transaminase activity for converting adipate semialdehyde to 6-aminohexanoate (formation of pyruvate from L-alanine) [2] | carboxylate reductase activity for converting adipate semialdehyde to hexanedial (consumption of NADPH, absorbance at 340 nm) [3]
SEQ ID NO 10: Rhodobacter sphaeroides ω-transaminase, Genbank Accession No. ABA81135.1, N-terminal HIS tagged | accepted 6-aminohexanoate as substrate | accepted adipate semialdehyde as substrate | –
SEQ ID NO 9: Pseudomonas syringae ω-transaminase, Genbank Accession No. AAY39893.1, N-terminal HIS tagged (protein, listed as Pseudomonas syringae, N-terminal His tag) MSANNPQTLEWQALSSEHHLAPFSDYKQLKEKGPRIITRAEGVYLWDSEGNKILDGMSGLWCVAIGYGREELADAASKQMRELPYYNLFFQTAHPPVLELAKAISDIAPEGMNHVFFTGSGSEGNDTMLRMVRHYWALKGQPNKKTIISRVNGYHGSTVAGASLGGMTYMHEQGDLPIPGVVHIPQPYWFGEGGDMTPDEFGIWAAEQLEKKILELGVENVGAFIAEPIQGAGGVIVPPDSYWPKIKEILSRYDILFAADEVICGFGRTSEWFGSDFYGLRPDMMTIAKGLTSGYVPMGGLIVRDEIVAVLNEGGDFNHGFTYSGHPVAAAVALENIRILREEKIVERVRSETAPYLQKRLRELSDHPLVGEVRGVGLLGAIELVKDKTTRERYTDKGAGMICRTFCFDNGLIMRAVGDTMIIAPPLVISFAQIDELVEKARTCLDLTLAVLQG | accepted 6-aminohexanoate as substrate | accepted adipate semialdehyde as substrate | –
SEQ ID NO 12: Vibrio fluvialis ω-transaminase, Genbank Accession No. AEA39183.1, N-terminal HIS tagged (protein, listed as Vibrio fluvialis, N-terminal His tag) MNKPQSWEARAETYSLYGFTDMPSLHQRGTVVVTHGEGPYIVDVNGRRYLDANSGLWNMVAGFDHKGLIDAAKAQYERFPGYHAFFGRMSDQTVMLSEKLVEVSPFDSGRVFYTNSGSEANDTMVKMLWFLHAAEGKPQKRKILTRWNAYHGVTAVSASMTGKPYNSVFGLPLPGFVHLTCPHYWRYGEEGETEEQFVARLARELEETIQREGADTIAGFFAEPVMGAGGVIPPAKGYFQAILPILRKYDIPVISDEVICGFGRTGNTWGCVTYDFTPDAIISSKNLTAGFFPMGAVILGPELSKRLETAIEAIEEFPHGFTASGHPVGCAIALKAIDVVMNEGLAENVRRLAPRFEERLKHIAERPNIGEYRGIGFMWALEAVKDKASKTPFDGNLSVSERIANTCTDLGLICRPLGQSVVLCPPFILTEAQMDEMFDKLEKALDKVFAEVA | accepted 6-aminohexanoate as substrate | accepted adipate semialdehyde as substrate | –
SEQ ID NO 6: Segniliparus rotundus carboxylate reductase, Genbank Accession No. ADG98140.1, N-terminal HIS tagged (protein, listed as Segniliparus rotundus, N-terminal His tag) MTQSHTQGPQASAAHSRLARRAAELLATDPQAAATLPDPEVVRQATRPGLRLAERVDAILSGYADRPALGQRSFQTVKDPITGRSSVELLPTFDTITYRELRERATAIASDLAHHPQAPAKPGDFLASIGFISVDYVAIDIAGVFAGLTAVPLQTGATLATLTAITAETAPTLFAASIEHLPTAVDAVLATPSVRRLLVFDYRAGSDEDREAVEAAKRKIADAGSSVLVDVLDEVIARGKSAPKAPLPPATDAGDDSLSLLIYTSGSTGTPKGAMYPERNVAHFWGGVWAAAFDEDAAPPVPAINITFLPLSHVASRLSLMPTLARGGLMHFVAKSDLSTLFEDLKLARPTNLFLVPRVVEMLYQHYQSELDRRGVQDGTREAEAVKDDLRTGLLGGRILTAGFGSAPLSAELAGFIESLLQIHLVDGYGSTEAGPVWRDGYLVKPPVTDYKLIDVPELGYFSTDSPHPRGELAIKTQTILPGYYKRPETTAEVFDEDGFYLTGDVVAQIGPEQFAYVDRRKNVLKLSQGEFVTLAKLEAAYSSSPLVRQLFVYGSSERSYLLAVIVPTPDALKKFGVGEAAKAALGESLQKIARDEGLQSYEVPRDFIIETDPFTVENGLLSDARKSLRPKLKEHYGERLEAMYKELADGQANELRDIRRGVQQRPTLETVRRAAAAMLGASAAEIKPDAHFTDLGGDSLSALTFSNFLHDLFEVDVPVGVIVSAANTLGSVAEHIDAQLAGGRARPTFATVHGKGSTTIKASDLTLDKFIDEQTLEAAKHLPKPADPPRTVLLTGANGWLGRFLALEWLERLAPAGGKLITIVRGKDAAQAKARLDAAYESGDPKLAGHYQDLAATTLEVLAGDFSEPRLGLDEATWNRLADEVDFISHPGALVNHVLPYNQLFGPNVAGVAEIIKLAITTRIKPVTYLSTVAVAAGVEPSALDEDGDIRTVSAERSVDEGYANGYGNSKWGGEVLLREAHDRTGLPVRVFRSDMILAHQKYTGQVNATDQFTRLVQSLLATGLAPKSFYELDAQGNRQRAHYDGIPVDFTAESITTLGGDGLEGYRSYNVFNPHRDGVGLDEFVDWLIEAGHPITRIDDYDQWLSRFETSLRGLPESKRQASVLPLLHAFARPGPAVDGSPFRNTVFRTDVQKAKIGAEHDIPHLGKALVLKYADDIKQLGLL | – | – | accepted adipate semialdehyde as substrate
SEQ ID NO 8: Pseudomonas aeruginosa ω-transaminase, Genbank Accession No. AAG08191.1, N-terminal HIS tagged (protein, listed as Pseudomonas aeruginosa, N-terminal His tag) MNARLHATSPLGDADLVRADQAHYMHGYHVFDDHRVNGSLNIAAGDGAYIYDTAGNRYLDAVGGMWCTNIGLGREEMARTVAEQTRLLAYSNPFCDMANPRAIELCRKLAELAPGDLDHVFLTTGGSTAVDTAIRLMHYYQNCRGKRAKKHVITRINAYHGSTFLGMSLGGKSADRPAEFDFLDERIHHLACPYYYRAPEGLGEAEFLDGLVDEFERKILELGADRVGAFISEPVFGSGGVIVPPAGYHRRMWELCQRYDVLYISDEVVTSFGRLGHFFASQAVFGVQPDIILTAKGLTSGYQPLGACIFSRRIWEVIAEPDKGRCFSHGFTYSGHPVACAAALKNIEIIEREGLLAHADEVGRYFEERLQSLRDLPIVGDVRGMRFMACVEFVADKASKALFPESLNIGEWVHLRAQKRGLLVRPIVHLNVMSPPLILTREQVDTVVRVLRESIEETVEDLVRAGHR | – | accepted adipate semialdehyde as substrate | –
SEQ ID NO 7: Chromobacterium violaceum ω-transaminase, Genbank Accession No. AAQ59697.1, N-terminal HIS tagged (protein, listed as Chromobacterium violaceum, N-terminal His tag) MQKQRTTSQWRELDAAHHLHPFTDTASLNQAGARVMTRGEGVYLWDSEGNKIIDGMAGLWCVNVGYGRKDFAEAARRQMEELPFYNTFFKTTHPAVVELSSLLAEVTPAGFDRVFYTNSGSESVDTMIRMVRRYWDVQGKPEKKTLIGRWNGYHGSTIGGASLGGMKYMHEQGDLPIPGMAHIEQPWWYKHGKDMTPDEFGVVAARWLEEKILEIGADKVAAFVGEPIQGAGGVIVPPATYWPEIERICRKYDVLLVADEVICGFGRTGEWFGHQHFGFQPDLFTAAKGLSSGYLPIGAVFVGKRVAEGLIAGGDFNHGFTYSGHPVCAAVAHANVAALRDEGIVQRVKDDIGPYMQKRWRETFSRFEHVDDVRGVGMVQAFTLVKNKAKRELFPDFGEIGTLCRDIFFRNNLIMRACGDHIVSAPPLVMTRAEVDEMLAVAERCLEEFEQTLKARGLA | accepted 6-aminohexanoate as substrate | accepted adipate semialdehyde as substrate | –
